# Numbering of substitutions follows the chain as printed.
# B1: THE1D (dsDNA)
# DNA 1: CCTGTGGGAGGTAATCCAATCATGGAGGCAG
# DNA 2: CTGCCTCCATGATTGGATTACCTCCCACAGG
# B2: THE1Dmut (dsDNA)
# DNA 1: B1 DNA 1 with A14C, A18T, C21G
# DNA 2: B1 DNA 2 with G11C, T14A, T18G
# B3: TRIM48 (dsDNA)
# DNA 1: AGGAGTGATGATAATTTAATCAGCCGTGCAA
# DNA 2: TTGCACGGCTGATTAAATTATCATCACTCCT
# B4: TRIM48mut (dsDNA)
# DNA 1: B3 DNA 1 with A14C, A18T, C21G
# DNA 2: B3 DNA 2 with G11C, T14A, T18G
# B5: CSF1R (dsDNA)
# DNA 1: CCAGGTGGAGATAATTGAATCATGGGGGCAG
# DNA 2: CTGCCCCCATGATTCAATTATCTCCACCTGG
# B6: CSF1Rmut (dsDNA)
# DNA 1: B5 DNA 1 with A14C, A18T, C21G
# DNA 2: B5 DNA 2 with G11C, T14A, T18G
# Experiments:
# DUX4-fl [1] = target: T1, DUX4-fl (Homo sapiens, UniProt Q9UBX2 SEQ:1-424); assay: EMSA; cold self competitor inhibits binding; settings: tags: from pCS2-DUX4-fl, TNT SP6 wheat germ extract; label: 32P
# T1 sequence (Q9UBX2 whole entry): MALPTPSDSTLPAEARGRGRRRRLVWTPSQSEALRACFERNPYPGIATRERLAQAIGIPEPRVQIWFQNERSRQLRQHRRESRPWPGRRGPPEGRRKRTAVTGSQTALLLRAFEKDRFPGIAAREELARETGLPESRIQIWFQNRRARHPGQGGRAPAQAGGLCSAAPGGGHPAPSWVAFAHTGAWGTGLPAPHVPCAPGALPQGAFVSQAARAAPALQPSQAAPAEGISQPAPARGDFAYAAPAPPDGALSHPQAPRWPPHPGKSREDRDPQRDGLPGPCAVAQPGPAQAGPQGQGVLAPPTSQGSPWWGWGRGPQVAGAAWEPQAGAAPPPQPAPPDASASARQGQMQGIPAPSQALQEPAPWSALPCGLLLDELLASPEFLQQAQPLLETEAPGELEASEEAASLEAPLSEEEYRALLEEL
# Experimental: (§1) EMSA was performed with ³²P-labeled 31-bp oligonucleotides from endogenous genomic sequences containing the putative DUX4 binding site as probes (sequences below; only forward shown). Radiolabeled probes were incubated with in vitro translated protein generated from pCS2-DUX4-fl or pCS2-DUX4-s² vectors using the TNT SP6 Coupled Wheat Germ Extract System (Promega) according to manufacturer's instructions. To obtain supershift of protein-DNA complexes, 0.1 μg of E14-3 anti-DUX4 rabbit monoclonal antibody was added to the mixtures. For competition experiments, excess unlabeled probes of either wild-type or mutant sequences were included in the binding reaction. The gels were prepared and run as previously described (Knoepfler et al., Nucleic Acids Res 27:3752-3761 (1999)).
# DUX4-fl [2] = target: T1, DUX4-fl; assay: competition; cold mutant does not compete with THE1D probe; settings: tags: from pCS2-DUX4-fl, TNT SP6 wheat germ extract
# Experimental: as §1
# DUX4-fl [3] = target: T1, DUX4-fl; assay: EMSA; supershift with E14-3; cold self competitor reduces binding; settings: tags: from pCS2-DUX4-fl, TNT SP6 wheat germ extract; label: 32P
# Experimental: as §1
# DUX4-s = DUX4-s (Homo sapiens); assay: EMSA; supershift with E14-3; settings: tags: from pCS2-DUX4-s2, TNT SP6 wheat germ extract; label: 32P
# Chain of DUX4-s (Homo sapiens) (Q6RFH8 other isoform, or with tags, fused parts or gaps): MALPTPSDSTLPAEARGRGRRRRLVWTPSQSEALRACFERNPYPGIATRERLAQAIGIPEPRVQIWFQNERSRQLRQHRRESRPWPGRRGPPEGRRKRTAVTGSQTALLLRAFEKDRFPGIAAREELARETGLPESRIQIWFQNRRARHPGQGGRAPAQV
# Experimental: as §1
# DUX4-fl [4] = target: T1, DUX4-fl; assay: competition; cold mutant does not compete with TRIM48 probe; settings: tags: from pCS2-DUX4-fl, TNT SP6 wheat germ extract
# Experimental: as §1
# DUX4-fl [5] = target: T1, DUX4-fl; assay: competition; cold mutant does not compete with CSF1R probe; core printed as … in legend; settings: tags: from pCS2-DUX4-fl, TNT SP6 wheat germ extract
# Experimental: as §1
Binder,binding result (DUX4-fl [1]),binding result (DUX4-s),also measured
B1,binds,–,–
B2,–,–,binding result (DUX4-fl [2]): no binding
B3,–,binds,binding result (DUX4-fl [3]): binds
B4,–,–,binding result (DUX4-fl [4]): no binding
B5,binds,binds,–
B6,–,–,binding result (DUX4-fl [5]): no binding
